{"source": "patent US20170209564A1", "binders": {"B1": {"name": "monoclonal antibody CR6261 (antibody, V domains shown)", "VH": "EVQLVESGAEVKKPGSSVKVSCKASGGPFRSYAISWVRQAPGQGPEWMGGIIPIFGTTKYAPKFQGRVTITADDFAGTVYMELSSLRSEDTAMYYCAKHMGYQVRETMDVWGKGTTVTVSS", "VL": "QSVLTQPPSVSAAPGQKVTISCSGSSSNIGNDYVSWYQQLPGTAPKLLIYDNNKRPSGIPDRFSGSKSGTSATLGITGLQTGDEANYYCATWDRRPTAYVVFGGGTKLTVLG"}}, "target": "s127H1-t2 (Influenza A virus H1N1 A/Brisbane/59/2007)", "details": "remark: other sources report otherwise", "data": [{"binder": "B1", "values": [{"measurement": "Kd", "result": 3.5, "unit": "nM"}]}]}
